Measurements as given in patent US20190055556A1 (Stanford University, published 2019).

B1: secreted protein acidic and rich in cysteine (SPARC) (other, human, UniProt P09486 18-303, looked up)
chain: APQQEALPDETEVVEETVAEVTEVSVGANPVQVEVGEFDDGAEETEEEVVAENPCQNHHCKHGKVCELDENNTPMCVCQDPTSCPAPIGEFEKVCSNDNKTFDSSCHFFATKCTLEGTKKGHKLHLDYIGPCKYIPPCLDSELTEFPLRMRDWLKNVLVTLYERDEDNNLLTEKQKLRVKKIHENEKRLEAGDHPVELLARDFEKNYNMYIFPVHWQFGQLDQHPIDGYLSHTELAPLRAPLIPMEHCTTRFFETCDLDNDKYIALDEWAGCFGIKQKDIDKDLVI
notes: Endogenous protein in SVZ hNPC conditioned media
B2: pleiotrophin (PTN) (ligand, human, UniProt P21246 33-168, looked up)
chain: GKKEKPEKKVKKSDCGEWQWSVCVPTSGDCGLGTREGTRTGAECKQTMKTQRCKIPCNWKKQFGAECKYQFQAWGECDLNTALKTRTGSLKRALHNAECQKTVTISKPCGKLTKPKPQAESKKKKKEGKKQEKMLD
notes: In the SEC and co-IP experiments this is the endogenous protein in SVZ hNPC conditioned media
B3: insulin-like growth factor binding protein 2 (IGFBP2) (other, human, UniProt P18065 36-325, looked up)
chain: AEVLFRCPPCTPERLAACGPPPVAPPAAVAAVAGGARMPCAELVREPGCGCCSVCARLEGEACGVYTPRCGQGLRCYPHPGSELPLQALVMGEGTCEKRRDAEYGASPEQVADNGDDHSEGGLVENHVDSTMNMLGGGGSAGRKPLKSGMKELAVFREKVTEQHRQMGKGGKHHLGLEEPKKLRPPPARTPCQQELDQVLERISTMRLPDERGPLEHLYSLHIPNCDKHGLYNLKQCKMSLNGQRGECWCVNPNTGKLIQGAPTIRGDPECHLFYNEQQEARGVHTQRMQ
notes: Control protein of the pull-down assay
B4: SPARC-like protein 1 (SPARCL1) (other, human, UniProt Q14515 17-664, looked up)
chain: IPTNARLLSDHSKPTAETVAPDNTAIPSLRAEAEENEKETAVSTEDDSHHKAEKSSVLKSKEESHEQSAEQGKSSSQELGLKDQEDSDGHLSVNLEYAPTEGTLDIKEDMSEPQEKKLSENTDFLAPGVSSFTDSNQQESITKREENQEQPRNYSHHQLNRSSKHSQGLRDQGNQEQDPNISNGEEEEEKEPGEVGTHNDNQERKTELPREHANSKQEEDNTQSDDILEESDQPTQVSKMQEDEFDQGNQEQEDNSNAEMEEENASNVNKHIQETEWQSQEGKTGLEAISNHKETEEKTVSEALLMEPTDDGNTTPRNHGVDDDGDDDGDDGGTDGPRHSASDDYFIPSQAFLEAERAQSIAYHLKIEEQREKVHENENIGTTEPGEHQEAKKAENSSNEEETSSEGNMRVHAVDSCMSFQCKRGHICKADQQGKPHCVCQDPVTCPPTKPLDQVCGTDNQTYASSCHLFATKCRLEGTKKGHQLQLDYFGACKSIPTCTDFEVIQFPLRMRDWLKNILMQLYEANSEHAGYLNEKQRNKVKKIYLDEKRLLAGDHPIDLLLRDFKKNYHMYVYPVHWQFSELDQHPMDRVLTHSELAPLRASLVPMEHCITRFFEECDPNKDKHITLKEWGHCFGIKEEDIDENLLF
notes: as for B1

Columns and labels:
Test in all cases: co-immunoprecipitation from SVZ hNPC conditioned media, Western blot
[1] = molecular target: B3
Method: (§1) To assess the specificity of the pull-down assay, three control proteins also present in SVZ hNPC CM: 78 kDa glucose-regulated protein (GRP78), insulin-like growth factor binding protein 2 (IGFBP2), and brevican (BCAN), were immunoprecipitated and were not found to copurify with any of the four proteins (FIG. 4D).
(§2) Immunoprecipitation reactions were conducted using the Pierce Crosslink Magnetic IP/Co-IP Kit (Thermo Scientific, Waltham, Mass.). 25 μL of Pierce Protein A/G Magnetic Beads per reaction were rinsed and incubated with 5 μg of antibody on a rotating platform for 15 minutes at room temperature. Antibodies used were: mouse anti-pleiotrophin (Santa Cruz Biotechnology, Santa Cruz, Calif.), rabbit anti-SPARC (Santa Cruz Biotechnology, Santa Cruz, Calif.), mouse anti-SPARCL1 (Santa Cruz Biotechnology, Santa Cruz, Calif.), rabbit anti-HSP90B (GeneTex, Irvine, Calif.), rabbit normal IgG (Santa Cruz Biotechnology, Santa Cruz, Calif.), and mouse normal IgG (Santa Cruz Biotechnology, Santa Cruz, Calif.). Beads were rinsed, and subsequently crosslinked to the antibodies using 0.02 mM DSS for 30 minutes at room temperature. Beads were washed and then incubated with a mixed combination of 250 μL neural precursor cell conditioned media and 250 μL IP lysis/wash buffer overnight at 4° C. The following morning, beads were washed, resuspended in Laemmli loading buffer, and boiled at 100° C. for 5 minutes to release the bound antigens from the beads. Samples were loaded immediately onto Western blots for analysis of the bound antigens, or stored at −20° C. for future analysis. For Western blot analysis, 2% of the input conditioned media was loaded, and 5% of the IP bound antigen samples were loaded.

brevican (BCAN) = molecular target: T1, brevican (BCAN) (human, UniProt Q96GW7 23-911, limits assumed)
T1 construct: Control protein of the pull-down assay
T1 sequence (looked up): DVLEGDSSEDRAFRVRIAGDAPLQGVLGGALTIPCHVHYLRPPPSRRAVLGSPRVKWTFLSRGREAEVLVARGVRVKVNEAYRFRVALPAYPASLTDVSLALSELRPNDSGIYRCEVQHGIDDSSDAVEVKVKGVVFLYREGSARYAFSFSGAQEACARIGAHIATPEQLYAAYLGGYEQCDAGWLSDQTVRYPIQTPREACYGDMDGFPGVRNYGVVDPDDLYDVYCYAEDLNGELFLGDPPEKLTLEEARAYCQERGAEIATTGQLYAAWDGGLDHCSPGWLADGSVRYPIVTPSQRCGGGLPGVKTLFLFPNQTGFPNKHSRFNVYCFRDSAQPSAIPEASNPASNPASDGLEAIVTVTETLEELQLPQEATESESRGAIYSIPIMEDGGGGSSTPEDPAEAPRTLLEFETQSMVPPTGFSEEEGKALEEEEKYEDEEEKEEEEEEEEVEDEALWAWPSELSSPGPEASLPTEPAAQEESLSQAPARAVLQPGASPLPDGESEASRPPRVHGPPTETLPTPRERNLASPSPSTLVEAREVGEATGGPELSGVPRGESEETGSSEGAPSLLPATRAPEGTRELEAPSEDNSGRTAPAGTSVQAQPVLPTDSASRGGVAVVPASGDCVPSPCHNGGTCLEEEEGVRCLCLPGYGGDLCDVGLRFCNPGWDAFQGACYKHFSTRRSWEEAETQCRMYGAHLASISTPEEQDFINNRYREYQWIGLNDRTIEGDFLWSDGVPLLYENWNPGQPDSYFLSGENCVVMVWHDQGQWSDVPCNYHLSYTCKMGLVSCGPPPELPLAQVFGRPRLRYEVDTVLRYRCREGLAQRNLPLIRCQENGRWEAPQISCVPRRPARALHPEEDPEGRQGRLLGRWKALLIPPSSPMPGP
Method: as §1, §2

[2] = molecular target: T2, 78 kDa glucose-regulated protein (GRP78) (human, UniProt P11021 19-654)
T2 construct: Control protein of the pull-down assay
Method: as §1, §2

[3] = molecular target: T3, heat shock protein 90B (HSP90B) (human, UniProt P14625 22-803, limits assumed)
T3 construct: Endogenous protein in SVZ hNPC conditioned media; 'HSP90B' alone is ambiguous
Method: as §1, §2

[4] = molecular target: B4
Method: as §1, §2

T2 sequence (P11021 19-654 limits assumed): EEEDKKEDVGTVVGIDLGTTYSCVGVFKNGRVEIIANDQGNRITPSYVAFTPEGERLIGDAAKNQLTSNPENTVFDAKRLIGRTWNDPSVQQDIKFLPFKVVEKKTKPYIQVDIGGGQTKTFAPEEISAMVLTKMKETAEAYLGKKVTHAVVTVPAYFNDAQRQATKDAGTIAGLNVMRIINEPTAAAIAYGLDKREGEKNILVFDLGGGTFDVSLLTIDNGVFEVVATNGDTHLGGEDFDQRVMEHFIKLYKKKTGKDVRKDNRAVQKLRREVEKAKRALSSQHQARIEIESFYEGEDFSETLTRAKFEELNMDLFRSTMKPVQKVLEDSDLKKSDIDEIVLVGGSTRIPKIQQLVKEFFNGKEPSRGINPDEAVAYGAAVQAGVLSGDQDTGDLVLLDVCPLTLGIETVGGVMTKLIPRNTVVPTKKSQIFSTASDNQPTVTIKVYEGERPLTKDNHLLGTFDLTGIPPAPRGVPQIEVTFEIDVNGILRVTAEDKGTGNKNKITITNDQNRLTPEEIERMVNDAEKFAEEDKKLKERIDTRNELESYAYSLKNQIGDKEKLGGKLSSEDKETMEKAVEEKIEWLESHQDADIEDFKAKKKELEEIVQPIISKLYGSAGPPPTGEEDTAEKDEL
T3 sequence (P14625 22-803 limits assumed): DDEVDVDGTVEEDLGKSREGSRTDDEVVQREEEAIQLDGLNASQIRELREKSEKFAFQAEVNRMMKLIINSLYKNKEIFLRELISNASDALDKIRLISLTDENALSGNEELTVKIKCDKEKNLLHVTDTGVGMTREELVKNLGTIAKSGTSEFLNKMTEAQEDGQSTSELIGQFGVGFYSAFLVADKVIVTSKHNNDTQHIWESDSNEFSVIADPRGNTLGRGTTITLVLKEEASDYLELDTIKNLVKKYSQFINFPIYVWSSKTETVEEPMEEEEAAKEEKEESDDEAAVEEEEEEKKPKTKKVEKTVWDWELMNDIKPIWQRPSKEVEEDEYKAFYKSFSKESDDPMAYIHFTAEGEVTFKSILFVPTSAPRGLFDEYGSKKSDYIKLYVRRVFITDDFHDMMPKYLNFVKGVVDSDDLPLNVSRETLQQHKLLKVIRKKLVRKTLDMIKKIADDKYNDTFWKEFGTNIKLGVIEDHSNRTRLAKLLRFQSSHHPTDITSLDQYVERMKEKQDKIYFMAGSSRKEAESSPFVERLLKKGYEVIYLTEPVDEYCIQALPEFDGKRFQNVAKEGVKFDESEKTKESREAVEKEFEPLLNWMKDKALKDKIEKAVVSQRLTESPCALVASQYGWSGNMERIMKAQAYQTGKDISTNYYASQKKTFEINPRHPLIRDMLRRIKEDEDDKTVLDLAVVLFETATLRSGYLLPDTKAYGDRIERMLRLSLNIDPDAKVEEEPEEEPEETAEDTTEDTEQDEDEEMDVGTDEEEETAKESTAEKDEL

| Binder | binding result [1] | binding result (brevican (BCAN)) | binding result [2] | binding result [3] | binding result [4] |
| --- | --- | --- | --- | --- | --- |
| B1 | no binding | no binding | – | – | – |
| B2 | no binding | no binding | no binding | – | – |
| B3 | – | – | – | no binding | no binding |
| B4 | – | no binding | – | – | – |
